Laboratory results reported in patent US20020143152A1, “Polypeptides, their production and use” (priority 1997, published 2002).
“Also recorded” adds a separate entry of the source. Non-standard residues stand in square brackets, D forms with d. No end group written: not given here. Met(O) = CS(=O)CC[C@H](N)C(=O)O

Biological target: T1, full-length human pituitary G protein-coupled receptor protein (phGR3) expressed in CHO-19P2 cells (Homo sapiens, UniProt P49683)
T1 construct: a ligation reaction was carried out to construct a full-length receptor protein expression plasmid pAKKO-19P2; expressed in transfected cells
T1 sequence (P49683 1-370): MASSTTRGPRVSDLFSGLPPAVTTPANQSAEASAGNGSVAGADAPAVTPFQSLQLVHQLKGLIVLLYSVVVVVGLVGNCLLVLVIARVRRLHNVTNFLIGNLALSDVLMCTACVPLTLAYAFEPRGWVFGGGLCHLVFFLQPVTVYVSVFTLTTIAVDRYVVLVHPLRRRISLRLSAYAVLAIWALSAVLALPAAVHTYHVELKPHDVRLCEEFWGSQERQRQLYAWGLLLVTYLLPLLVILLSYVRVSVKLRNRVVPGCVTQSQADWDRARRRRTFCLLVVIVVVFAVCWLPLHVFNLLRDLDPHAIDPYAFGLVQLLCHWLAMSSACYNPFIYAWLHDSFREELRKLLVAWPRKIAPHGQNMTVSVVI
Assay: release of [3H] arachidonic acid metabolites from CHO-19P2 cells
Type: cell-based
Conditions: synthetic peptide diluted with 0.05% BSA-HBSS to 10^−12M-10^−6M; radioactivity of [3H] arachidonic acid metabolites released in supernatant
Procedure: The full-length receptor protein-expressed CHO cells and mock CHO cells were seeded in a 24-well plate, 0.5×10^5 cells/well, and cultured for 24 hours. Then, [^3H] arachidonic acid was added at a final concentration of 0.25μCi/well. Sixteen (16) hours after addition of [^3H] arachidonic acid, the cells were rinsed with 0.05% BSA-HBSS and the above-mentioned crude peptide fraction was added, 400 μl/well. The mixture was incubated at 37 C. for 30 minutes and a 300 μl portion of the reaction mixture (400 μl) was added to a scintillator (4 ml) and the amount of [^3H] arachidonic acid metabolite released into the reaction mixture was determined with a scintillation counter. As a result, an arachidonic acid metabolite-releasing activity specific to the full-length receptor protein expressed CHO cells (CHO-19P2) was detected in the 30% CH3CN fraction of the eluate FIG. 16.
The activity of the peptide (19P2-L31) synthesized in Example 21 to specifically release arachidonic acid metabolites from CHO-19P2 cells was assayed in the same manner as Example 11. The synthetic peptide was dissolved in degassed distilled water at a concentration of 10^−3M and diluted with 0.05% BSA-HBSS and the activity to promote release of arachidonic acid metabolites from CHO-19P2 cells at each concentration was assayed using the amount of [^3H] arachidonic acid metabolites as the indicator.
The activity of the synthetic equivalent (19P2- L20) of natural peptide P-2 as synthesized in Example 23 to specifically promote release of arachidonic acid metabolites from CHO-19P2 cells was determined as in Example 11. Thus, the synthetic peptide was dissolved in degassed distilled water at a final concentration of 10^−3M and this solution was serially diluted with 0.05% BAS-HBSS. The activity to specifically promote release of arachidonic acid metabolites from CHO-19P2 cells at each concentration was assayed using the amount of [^3H] arachidonic acid metabolites as the indicator.

## Ser-Arg-Ala-His-Gln-His-Ser-Met(O)-Glu-Ile-Arg-Thr-Pro-Asp-Ile-Asn-Pro-Ala-Trp-Tyr-Ala-Gly-Arg-Gly-Ile-Arg-Pro-Val-Gly-Arg-Phe-NH2 (SRAHQHS[Met(O)]EIRTPDINPAWYAGRGIRPVGRF-NH2; N-terminus assumed; SMILES CC[C@H](C)[C@H](NC(=O)CNC(=O)[C@H](CCCNC(=N)N)NC(=O)CNC(=O)[C@H](C)NC(=O)[C@H](Cc1ccc(O)cc1)NC(=O)[C@H](Cc1c[nH]c2ccccc12)NC(=O)[C@H](C)NC(=O)[C@@H]1CCCN1C(=O)[C@H](CC(N)=O)NC(=O)[C@@H](NC(=O)[C@H](CC(=O)O)NC(=O)[C@@H]1CCCN1C(=O)[C@@H](NC(=O)[C@H](CCCNC(=N)N)NC(=O)[C@@H](NC(=O)[C@H](CCC(=O)O)NC(=O)[C@H](CCS(C)=O)NC(=O)[C@H](CO)NC(=O)[C@H](Cc1c[nH]cn1)NC(=O)[C@H](CCC(N)=O)NC(=O)[C@H](Cc1c[nH]cn1)NC(=O)[C@H](C)NC(=O)[C@H](CCCNC(=N)N)NC(=O)[C@@H](N)CO)[C@@H](C)CC)[C@@H](C)O)[C@@H](C)CC)C(=O)N[C@@H](CCCNC(=N)N)C(=O)N1CCC[C@H]1C(=O)N[C@H](C(=O)NCC(=O)N[C@@H](CCCNC(=N)N)C(=O)N[C@@H](Cc1ccccc1)C(N)=O)C(C)C) [19P2-L31(O), methionine-oxidation product of 19P2-L31]
  activity to specifically promote release of arachidonic acid metabolites from CHO-19P2 cells: equivalent to the activity of 19P2-L31; also recorded: found in a dose-dependent manner

## Ser-Arg-Ala-His-Gln-His-Ser-Met-Glu-Ile-Arg-Thr-Pro-Asp-Ile-Asn-Pro-Ala-Trp-Tyr-Ala-Gly-Arg-Gly-Ile-Arg-Pro-Val-Gly-Arg-Phe-NH2 (SRAHQHSMEIRTPDINPAWYAGRGIRPVGRF-NH2) [19P2-L31]
  activity to specifically promote release of arachidonic acid metabolites from CHO-19P2 cells: concentration-dependent arachidonic acid metabolite-releasing activity was detected over the range of 10^−12M -10^−6M; also recorded: found in a concentration-dependent manner

## Thr-Pro-Asp-Ile-Asn-Pro-Ala-Trp-Tyr-Ala-Gly-Arg-Gly-Ile-Arg-Pro-Val-Gly-Arg-Phe-NH2 (TPDINPAWYAGRGIRPVGRF-NH2) [19P2-L20]
  activity to specifically promote release of arachidonic acid metabolites from CHO-19P2 cells: concentration-dependent arachidonic acid metabolite-releasing activity was detected over the range of 10^−12 -10^−6M in nearly the same degree as 19P2-L31; also recorded: found in a dose-dependent manner
